From the supplement of paper PMC12042874 come the findings set out here.

± gives the uncertainty stated by the source.

The series in a line: amyloid nucleation score (Sup35N fusion, yeast selection) (log enrichment); library NNK3; higher = more nucleation; inactive = no reads after selection. In short, it runs like this:
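The nucleation score is the log enrichment of output over input reads, calculated with DiMSum and centred on the mode score of non-aggregating sequences. Sequences with under 100 input reads were excluded. Reads came from Illumina sequencing of plasmid inserts from psi-negative yeast expressing Sup35N fused to peptides of 20 random codons, induced 24 hours with 100 μM copper sulfate and grown 7 days at 30°C without adenine and uracil.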
The substance TYTFLSPVIDYKLYVYQCRT came in with an amyloid nucleation score of 1.72 ± 0.067.
VACRVVGNSSVWVFRRHVEN: the amyloid nucleation score result is “inactive”.
The same measure for VAETYLRTA: “inactive”; for VAFFSGWQIVVLFMKVL: “inactive”.
Substance VAGSRCMDAWVKWCMVIRMF registered an amyloid nucleation score of 0.247 ± 0.25.
On to VARIIYQRIW, for which the amyloid nucleation score result is “inactive”.
On to VARPCFRERNHSPI, for which the amyloid nucleation score result was “inactive”.
Turning to VARSSQSISSMHMTMRYKCA, the amyloid nucleation score entry is “inactive”.
In the case of VASSKQYLGTVTYLDGVA it was “inactive”; in that of VATKQVVQGLMSPNN, “inactive”; in that of VCFFGLYVLKDN, “inactive”.
In the case of VCHLWSLTVYGAVFQHLNFM, the amyloid nucleation score entry is “inactive”.
In the case of VCIVVGARGGGYVLRTPLRG it was “inactive”; in that of VCKVTFMCAFRHDYSKRYYG, 0.35 ± 0.48.
In the case of VCLCNIRDMAG it was “inactive”; in that of VCNSYCMPRPRILQSQGGMG, “inactive”; in that of VCREGLRDSRSAGGFFSYII, “inactive”.
VCSFCCFGTVRSL returned an amyloid nucleation score of 2.1 ± 0.058.
The same measure for VCSLVLWSLSSWWTRYGTLR: “inactive”.
In the case of VCSSINPFQNMTSFKVWIKS it was “inactive”.
The same measure for VCTKWGQYFCPYPVLCGWVR: “inactive”.
VCVVWNIVDQAYNMW gave an amyloid nucleation score of 0.253 ± 0.34.
The same measure for VDETPSSHMSIPVMERVLCG: “inactive”.
The same measure for VDHGRD: “inactive”.
In the case of VDIGYQMQGFLGICSDY it was “inactive”; in that of VDIVRVSCEALSLATDCQFL, “inactive”; in that of VDNCIWLFLSTFYDGCVVML, “inactive”.
Take VDNHACPWTGGLHFRKLWNG: the amyloid nucleation score entry is “inactive”.
For the substance VDNWFVFFYGYSGLLYGSHY, the amyloid nucleation score result is “inactive”.
Regarding VDRVYTLREFEVHGGTWFGV, the amyloid nucleation score result is “inactive”.
The same measure for VDRYLCNFSGGTLYGSLSQD: “inactive”; for VDVCITFCWIARLMV: “inactive”; for VDYKLFNFDGVCITTVFVHY: 2.24 ± 0.095.
In the case of VEAEHYSRRNEKVFRSNMKW it was “inactive”.
The same measure for VEELKYRHNALNFRKNVQSL: “inactive”.
The substance VEEYHNQ returned an amyloid nucleation score of 0.858 ± 0.13.
The same measure for VEHDNKGISQAAVMFG: “inactive”.
The same measure for VEHFNGHTRTVGCLFKRDLR: “inactive”.
On to VERHFAVDERP, for which the amyloid nucleation score is -0.682 ± 2.5.
In the case of VFECLTFF it was -0.872 ± 1; in that of VFESCEYSRQVVGNFRDEM, “inactive”.
Turning to VFFAVF, the amyloid nucleation score entry is “inactive”.
In the case of VFGGNVIKSYVKITFQPGFD it was 2.22 ± 0.061; in that of VFGKCLCTNCLEEVCIRFDL, “inactive”.
With VFKSSGPAVTSYWY, the amyloid nucleation score result is “inactive”.
The same measure for VFLACNYFILSRNDLKWGYP: 2.56 ± 0.06.
Take VFLILFVLPLFYLNDSPGCA: the amyloid nucleation score entry was “inactive”.
With VFLVTSRVNIRCVVLHIINE, the amyloid nucleation score was found to be 1.08 ± 0.11.
VFMIVRQEGSSDFFFDFSSV: the amyloid nucleation score is 1.42 ± 0.11.
On to VFNFFYAEMGLMIKFWIDNL, for which the amyloid nucleation score was 1.08 ± 0.081.
The same measure for VFNSSKDLVSEKEPLRYMIG: “inactive”; for VFQRVNISVCINVVKFMSSM: 1.65 ± 0.069.
In the case of VFSDHVLSF, the amyloid nucleation score result is “inactive”.
VFSKSLGI: the amyloid nucleation score entry was “inactive”.
